We go through 1 protein from paper PMC9088182 (Cell reports, 2022).

The series concerns the molecule itself. Briefly: cryo-EM structure.

B1: TRPV5 Thr709Asp phosphomimetic mutant (rabbit) (natural protein)
chain: MGACPPKAKGPWAQLQKLLISWPVGEQDWEQYRDRVNMLQQERIRDSPLLQAAKENDLRLLKILLLNQSCDFQQRGAVGETALHVAALYDNLEAATLLMEAAPELAKEPALCEPFVGQTALHIAVMNQNLNLVRALLARGASVSARATGAAFRRSPHNLIYYGEHPLSFAACVGSEEIVRLLIEHGADIRAQDSLGNTVLHILILQPNKTFACQMYNLLLSYDEHSDHLQSLELVPNHQGLTPFKLAGVEGNTVMFQHLMQKRKHVQWTCGPLTSTLYDLTEIDSWGEELSFLELVVSSKKREARQILEQTPVKELVSFKWKKYGRPYFCVLASLYILYMICFTTCCIYRPLKLRDDNRTDPRDITILQQKLLQEAYVTHQDNIRLVGELVTVTGAVIILLLEIPDIFRVGASRYFGQTILGGPFHVIIITYASLVLLTMVMRLTNMNGEVVPLSFALVLGWCSVMYFARGFQMLGPFTIMIQKMIFGDLMRFCWLMAVVILGFASAFHITFQTEDPNNLGEFSDYPTALFSTFELFLTIIDGPANYSVDLPFMYCITYAAFAIIATLLMLNLFIAMMGDTHWRVAQERDELWRAQVVATTVMLERKMPRFLWPRSGICGYEYGLGDRWFLRVENHHDQNPLRVLRYVEAFKCSDKEDGQEQLSEKRPSTVESGMLSRASVAFQTPSLSRTTSQSSNSHRGWEILRRNDLGHLNLGLDLGEGDGEEVYHF
As to B1, the binding result is reported as “binds”.
